We go through 30 sequences from the nanobody polyreactivity screen of Harvey et al. (2022).

The series can be described thus: yeast display, Sf9 membrane polyspecificity reagent, FACS + sequencing; frameworks hold sequencing errors. In short, it runs like this: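 In a synthetic yeast display library (Saccharomyces cerevisiae BJ5465), nanobody expression was induced with galactose for 36–48 hours. FACS gates were set low and high (top ~1%) using anti-HA fluorescence for expression and streptavidin fluorescence for binding of the Sf9 membrane reagent. Each polyreactivity label is drawn from the gate of origin.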
“QVHLVESGGGLVQAAGILRLSSAASGFTFVPYAMGWYRQAPGKERELVAAISWRRGSTYYADSVKGRFTISRDNAKITVYLQMNSLKPEDSGVYYGDDQYFSRSGYWGQGTQVTVSS”: the “polyreactivity (PSR sort gate)” value was “high polyreactivity”. Then “QVQLVESGGGLVQAGGSLRLSCAASGSIFYSNAMGLSRQAPGKEREWVATITSGDSTNYADSVKGRFTISRDNAKNTVYLQMNSLKPEDTAVYYCAADSSLYEWFDWPWERGQSVESWGQGTQVTVSS”, with “low polyreactivity”; and “QVQLQESGGGLVQAGGSLRLSCAASGNIVDADIMGWYRQAPGKEREIVASITDGGSTNYADSLKGRFTISRDNAKNTVYQQMNSLIPEDTAVYYCAAIAYPDIPPYFDYDSDYFDWGQGTQETVSS”, with “high polyreactivity”; and “QVQLVESGGGLVQAGGSLRLSCAASGGIFRVYAMGWYRQAPGKERELVAAISRSGSSTYYADSVKGRFTISRDNAKNTVYLQMTSLKPEDTAVYYCNAYSQYWLGNNYWGQGTQVTLSS”, with “high polyreactivity”. Then “QVQLVESGGGLVQAGGSLRLSCAASGSIFSVNAMGWYRQAPGKERELVATIRWSGSSTYYADSVKGRFTISRDNAKNSVYLQMKSLKPEDTAVYYCAADSTEIPWCGMDYWGQGTQVTLSS”, with “low polyreactivity”; and “QVQLVESGGGLVQAGGSLRLSCASSGSTFYFNAMGWYRQAPGKERELVAAITSSGGTTYYADSVKGRFTISRDNAKNTVYLQMNSLKPEDTAVFYCADWFSAYYSLYRHRGYWGHGTQVTVSS”, with “low polyreactivity”. In the case of “QVQHVESGGGIVQAGGSLRLSCAASGSIFYQYAMGWYRQSPGKERELVAASSRSGGSTYYADSVKGRFTISRHNAKNTVYLQMNSLKPEDTAVYYCAARAVRAAYDYWGQGTQVTVSS”, the “polyreactivity (PSR sort gate)” value was “low polyreactivity”. Then “QVQLVESGGGLVQAGGSLRLSCAASGRIFTWYGMGWYSQAPGKERELVARITQRGGTTYYADSVKGRFTISRDNAKNTVYLQINSLKPEDTAFYYCATQYTYTGRRYYSYVDGSRYYYWGQGTQVTVSS”, with “high polyreactivity”. Then “QVQLVESGGGLVQAGGSLRLSCAASGIIFTYYAMGWYRQAPGKERELVASISSSGTSTYYADSVKGRFTISRDNAKNTVYLQMNSLKPEDTAVYYCAADWTGSNGVDYWGQGTQVTVSS”, with “low polyreactivity”. Then “QFQLVESGGGLVQAGGSLRLSCAASGFTFIKYAMGWYRQAPGKEREFVATISWNGGNTYYADSVKGRFTISRDNAKNTVYLQMNSLKPEDTAVYYCAARRRAFGSTYNYWGQGTQVTVSS”, with “high polyreactivity”; and “QVQLVESGGGLVQAGGSLRLSCAASGFTFTENVMGWYRQAPGKEREFVAAITYIGGRTYYADSVKGRFTISRDNAKNTVYFQMNSLKPEDTAVYYCAADWAYYVDSYLYYTFDYWGQGTQVTVSS”, with “low polyreactivity”; and “QVQHVESGGGLVQAGGSLRLSCAASGRTFPGNAMGWYRQAPGKERELVAAISSSGGSTHYADSVKGRFTFSRDNAKNTVYLQMNSRKPEDSAVYYCNARSKGYSYRYYYWGQGTQVTVSS”, with “high polyreactivity”. As for “QVQLVDSGGGLVQAGGILRLSCAASGRTFWIYAMGWYRQAPGKERQLVAAITGSGGSTYYADSVKGRFTISRDNAKNTGYLQMICLKPEDTAVYYCNARVPDCYKWSAYYSHDYWGQGTQVTVSS”, the “polyreactivity (PSR sort gate)” value was “low polyreactivity”. “QVQQQESGGGLVQAGGSLRLSSAASVTILYTLGLGLYRQAPGKTLEFVASITWGTTTNYAESVKGRFTISRDNAKNSVYLQMNSLKPEDTADYYCAARKFVYWYGMEYWGQGTQVTVSS”: the “polyreactivity (PSR sort gate)” value was “low polyreactivity”.

As for “QVQLVESGGGLVQAGGSLRLSCAASGSIFSRNDMGWYRQAPGKERELVAAITSDDTSTYYADSVNGRFTISRDNAKNTVYLQMNSLKPEDTAVYYCAADYGNPFDYWGQGTQVTVSS”, the “polyreactivity (PSR sort gate)” value was “low polyreactivity”. Consider “QVQLVESGGGLVQAGGSLRLSCAASGFIFITYDMGWYIQAPGKERELVAVITSGGTTNYADSVKGRFTIARDNAKNTVYLQMNSLKPEDTAVYYCNRDSVLDPGNPNPYGFDYWGQGTQVTVSS”, for which the “polyreactivity (PSR sort gate)” value was “low polyreactivity”. Then “QVQRVESAGRLVQAGGSLRLSCAPSGRTFPGNDMGWYRQAPGKESEFVAAISSDDSTYYADSVKGRFTISRDNAKNTVYLQMNSLKPEDTGVYYSNAEYFEGYIGVPGSYWPYEYWGQGNQVTVSS”, with “low polyreactivity”; and “QVQLQESGGLVQAGGSLRLSCAASGSISGRNVMGWYRQAPGKEREFVASITDGSSTNYADSVKGRVTISRDNAKNTVYLQMNSLKPKDTAVYYCAAYAQRAKSFGYWGRGTQVTVSS”, with “low polyreactivity”; and “QVQLVESGGGLVQAGGSLRLSCAASGFTFYRYAMGWYRPAPGKERELVAAISSTGDRTYYADSVKGRFTISRDNAKNTVYLQMNSLKPEDTAVYYCAAPYQNQVEFNYWGQGTQVTVSS”, with “high polyreactivity”. On to “QVQLVESGGGLVQAGGSLRLSCAASGITFYGYDKGWYRQAPGKERELGAAITSDGITNYADSVKGRFTISRDNAKNTVYLQMNSLKPEDTAVYYCAADLSFYRRYEWYYYWGQGTQVTVSS”, for which the “polyreactivity (PSR sort gate)” value is reported as “low polyreactivity”. Turning to “QVQLVESGGGLVQAGGSLRLSFAASEGWYRQAPGKERELVAAISYIGGSTYYADSEKGRFTISRDNAKNTVYLQMNRLKPEDTAVYYCAKGYPDPKWGGVLAYDYWGQGTQVTVSS”, the “polyreactivity (PSR sort gate)” value is on record as “low polyreactivity”.

Regarding “QVQLVESGGGLDQAGGSLRLSCAASGFTFSYNAMGWYRQAPGKERELVASISWRGGGTYYADSVKGRFTISRDNAKNTVYLQMNSLKPEDTAVYYCNAGLTDYIGDPSEVDYWGQGTQVTVSS”, the “polyreactivity (PSR sort gate)” value was “low polyreactivity”. On to “HVQLVESGGGLVQAGGSLRLSCAASGFIFRKYAMGWYRQAPGKERELVAAISGRADSTYYADSVKGRFTISRDNAKNTVYLEMISLKPEDTAVYYCAADWLSKIGKGYDYWGQGTQVTVSS”, for which the “polyreactivity (PSR sort gate)” value is listed as “high polyreactivity”. Turning to “QVQLVESGGGIVQAGGSLRLSCAASGSTFSYNAMGWDRQAPGKERELVAAITSRGGSTRYADSVKGRFTISRDNAKNTVYLQMNSLKPEDTAVYYCARPYSYYPYSTVNYWGQGTQVTVSS”, the “polyreactivity (PSR sort gate)” value is reported as “high polyreactivity”. For “QVQLVESGGGLVQAGGSLRLSCAASGSIFTIYAMGWYRQAPGKERELVATITGIADSTYYADSVKGRFTISRDNAKNTVYLQMNSLKPEDTAVYYCAADKYVAEYDYWGQGTQVTVSS”, the “polyreactivity (PSR sort gate)” value is given as “low polyreactivity”. In the case of “QVQLVESGGGLVQAGGSLRLSCAASGSIFRRNTMGWYRQAPGKERELVAAISTRGGSTYYADSVKGRFTISRDNAKNTVYLQMNSLKPEDTAVYYCNTRGYYIVHRGYDYWGQGTQVTVSS”, the “polyreactivity (PSR sort gate)” value is recorded as “high polyreactivity”.

On to “QVQLVESGGGLVQAGGSLRLSCAASGSTFTRNAMGWYRQAPGKERELVAAITSSGGSTYYADSVKGRFTISRDNAKITVYLQMNSLKPEDTAVYYCAAYPHRPRDRELDHWGQGTQVTVSS”, for which the “polyreactivity (PSR sort gate)” value is given as “low polyreactivity”. For “QVQLVESGGGLVPAGGSLRLSCAASGFIYWYAMGWYRQAPGKETELVAAITWSGGSTYADSVKGRFTISRDNAKNTVYLQMNCLKPEDSAVYYCAADKYSQWSSHTRVRYDYWGQGTQETVSS” the value was “low polyreactivity”; for “QVQLVESGGGLVQAGGSLSLSCAASVYIFLVYAMGWYRQAPGKERELVAAISSGGSTYYADSVKGRFTISRDNAKNTVYLQMNSLKPEDTAVYYCAKAGLALYAFRDDYWGQGTQVTVSS”, “low polyreactivity”. For “QVQLVESGGGLVQAGGSLRLSCAASGRTYRYAMGWYRQPPGKERELVAGISSSGTSTNYADSVKGRFTISRDNAKNTVYLQMNSLKPEDTAVYYCNADIIWFPADYLYDYWGQGTQVTVSS” the value was “low polyreactivity”.
